# B1: p-hydroxybenzoate hydroxylase (Pseudomonas fluorescens), P00438 (protein)
# chain: MKTQVAIIGAGPSGLLLGQLLHKAGIDNVILERQTPDYVLGRIRAGVLEQGMVDLLREAGVDRRMARDGLVHEGVEIAFAGQRRRIDLKRLSGGKTVTVYGQTEVTRDLMEAREACGATTVYQAAEVRLHDLQGERPYVTFERDGERLRLDCDYIAGCDGFHGISRQSIPAERLKVFERVYPFGWLGLLADTPPVSHELIYANHPRGFALCSQRSATRSRYYVQVPLTEKVEDWSDERFWTELKARLPAEVAEKLVTGPSLEKSIAPLRSFVVEPMQHGRLFLAGDAAHIVPPTGAKGLNLAASDVSTLYRLLLKAYREGRGELLERYSAICLRRIWKAERFSWWMTSVLHRFPDTDAFSQRIQQTELEYYLGSEAGLATIAENYVGLPYEEIE
# Legend:
# [1] = substrate: O=C(O)c1ccc(O)cc1OCc1ccccc1; assay: Michaelis-Menten constant against p-hydroxybenzoate hydroxylase (PHBH) from Pseudomonas fluorescence compared with NADPH; details: Pseudomonas fluorescens
# [2] = substrate: O=C(O)c1ccc(O)cc1OCc1ccccc1; assay: Michaelis-Menten constant against p-hydroxybenzoate hydroxylase (PHBH) from Pseudomonas fluorescence compared with p-hydroxy benzoic acid; details: Pseudomonas fluorescens
protein,measurement,setting,value
B1,Km,[1],57 µM
same,Km,[2],21 µM

# Source: ChEMBL document CHEMBL1127417, “Multisubstrate inhibition of 4-hydroxybenzoate 3-monooxygenase” (J Med Chem, 1994)
